Each block holds one binder with its values, some of them ahead of it.
B1: C9-p35/p12-CIVSM (enzyme)
chain 1: MDEADRRLLRRCRLRLVEELQVDQLWDALLSRELFRPHMIEDIQRAGSGSRRDQARQLIIDLETRGSQALPLFISCLEDTGQDMLASFLRTNRQAAKLSKPTLENLTPVVLRPEIRKPEVLRPETPRPVDIGSGGFGDVGALESLRGNADLAYILSMEPCGHCLIINNVNFCRESGLRTRTGSNIDCEKLRRRFSSLHFMVEVKGDLTAKKMVLALLELAQQDHGALDCCVVVILSHGCQASHLQFPGAVYGTDGCPVSVEKIVNIFNGTSCPSLGGKPKLFFIQACGGEQKDHGFEVASTSPEDESPGSNPEPD
chain 2: ATPFQEGLRTFDQLDAISSLPTPSDIFVSYSTFPGFVSWRDPKSGSWYVETLDDIFEQWAHSEDLQSLLLRVANAVSVKGIYKQMPCIVSMLRKKLFFKTS
notes: caspase-9, p35 (prodomain and large subunit), ends at Asp-315; caspase-9, p12 small subunit, GCFNF dimer motif replaced by the caspase-3 motif CIVSM; Homodimer by SEC-MALS; also called GCFNF→CIVSM; source: E. coli BL21(DE3)pLysS, ProC9-CIVSM fully processed during expression, purified (Ni2+-NTA, Mono-Q); copies: 2 + 2
B2: biotinylated Apaf-1 CARD-LZ-Avi (domain or fragment)
chain: not shown
modifications: biotin on the AviTag (BirA)
notes: Apaf-1 CARD (1-137); GCN4 leucine zipper, C-terminal to the CARD, followed by the AviTag and the His6-tag; Cloned into pRSF-Duet1; also called Apaf-1 CARDs; source: E. coli BL21(DE3)pLysS, purified (Ni2+-NTA, Mono-Q), biotinylated with BirA, avidin column

Experiments:
[1] = target: the molecule itself; test: SEC-MALS; recombinant C9 proteins 200 μl at 40 μM; 20 mM HEPES, 50 mM NaCl, pH 8.0; 0.5 ml/min
[2] = target: T1, recombinant full-length Apaf-1XL (UniProt O14727-1 1-1248); test: SEC; Apaf-1 (300 nM) with C9 protein (200 nM) and Cc/dATP, 30 min 37 °C; Superose-6 gel filtration, pooled fractions precipitated and immunoblotted for Apaf-1 and C9; conditions: both partners purified
T1 construct: Oligomerised into the apoptosome with bovine cytochrome c (Sigma) and dATP/MgCl2; also called oligomerized Apaf-1; Apaf-1 apoptosome; source: Hi-five or Sf21 cells, baculovirus, purified
T1 sequence (looked up): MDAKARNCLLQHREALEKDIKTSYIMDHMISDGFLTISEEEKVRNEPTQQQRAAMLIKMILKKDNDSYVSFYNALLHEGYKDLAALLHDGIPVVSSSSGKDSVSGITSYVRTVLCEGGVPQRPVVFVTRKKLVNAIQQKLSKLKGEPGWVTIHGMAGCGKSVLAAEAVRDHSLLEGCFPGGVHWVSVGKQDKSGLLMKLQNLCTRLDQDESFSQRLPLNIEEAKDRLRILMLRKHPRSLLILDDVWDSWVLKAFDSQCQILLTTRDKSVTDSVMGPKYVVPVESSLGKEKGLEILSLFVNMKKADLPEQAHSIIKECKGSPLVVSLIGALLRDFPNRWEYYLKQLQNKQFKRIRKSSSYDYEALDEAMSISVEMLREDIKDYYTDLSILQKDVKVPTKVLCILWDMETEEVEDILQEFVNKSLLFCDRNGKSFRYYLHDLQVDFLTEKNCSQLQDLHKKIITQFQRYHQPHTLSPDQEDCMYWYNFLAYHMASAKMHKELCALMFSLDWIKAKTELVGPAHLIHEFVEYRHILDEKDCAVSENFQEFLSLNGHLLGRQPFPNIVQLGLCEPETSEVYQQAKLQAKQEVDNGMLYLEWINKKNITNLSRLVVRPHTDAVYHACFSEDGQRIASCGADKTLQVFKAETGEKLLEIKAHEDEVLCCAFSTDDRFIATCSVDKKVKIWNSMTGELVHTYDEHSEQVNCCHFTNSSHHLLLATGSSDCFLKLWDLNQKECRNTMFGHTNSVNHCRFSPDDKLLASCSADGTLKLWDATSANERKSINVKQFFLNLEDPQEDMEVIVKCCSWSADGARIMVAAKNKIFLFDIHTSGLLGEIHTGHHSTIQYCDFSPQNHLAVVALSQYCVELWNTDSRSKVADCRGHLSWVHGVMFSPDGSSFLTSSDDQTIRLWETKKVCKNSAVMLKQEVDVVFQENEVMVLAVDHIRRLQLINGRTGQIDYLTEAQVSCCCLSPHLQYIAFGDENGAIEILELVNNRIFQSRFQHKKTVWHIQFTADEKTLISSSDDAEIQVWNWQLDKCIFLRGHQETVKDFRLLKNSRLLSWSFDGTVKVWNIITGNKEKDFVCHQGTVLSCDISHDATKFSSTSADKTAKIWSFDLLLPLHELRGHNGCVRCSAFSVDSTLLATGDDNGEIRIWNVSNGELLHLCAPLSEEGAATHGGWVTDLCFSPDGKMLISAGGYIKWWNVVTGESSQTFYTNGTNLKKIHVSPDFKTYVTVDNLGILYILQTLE

[3] = target: T2, processed two-chain caspase-9 C9-p35/p12 (UniProt P55211 1-315; P55211 316-416); test: SPR; biotinylated Apaf-1 CARD-LZ-Avi immobilised on an SA chip; C9 proteins 125 nM-2 μM as analytes; 0.01 M HEPES, 0.15 M NaCl, 3 mM EDTA, 0.05% P20; room temperature; affinities by equilibrium analysis, kinetics fitted to a two-state model; conditions: both partners purified
T2 construct: caspase-9, p35 (prodomain and large subunit), ends at Asp-315 (PEPD315); caspase-9, p12 small subunit with the intersubunit linker, begins after Asp-315; Purified on Ni2+-NTA; also called processed C9; cleaved C9; source: E. coli BL21(DE3)pLysS, wild-type ProC9 overexpressed and autocleaved at Asp-315, purified (Ni2+-NTA, Mono-Q)
T2 sequence (looked up) 1: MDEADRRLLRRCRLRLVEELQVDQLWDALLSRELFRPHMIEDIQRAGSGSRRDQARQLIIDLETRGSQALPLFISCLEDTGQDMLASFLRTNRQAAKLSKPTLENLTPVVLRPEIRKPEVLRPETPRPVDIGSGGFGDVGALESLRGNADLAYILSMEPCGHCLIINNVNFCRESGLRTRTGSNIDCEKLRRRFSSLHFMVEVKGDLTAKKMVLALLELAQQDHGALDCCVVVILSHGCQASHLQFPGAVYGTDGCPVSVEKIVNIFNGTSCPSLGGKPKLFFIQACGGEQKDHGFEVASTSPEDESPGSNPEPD
T2 sequence (looked up) 2: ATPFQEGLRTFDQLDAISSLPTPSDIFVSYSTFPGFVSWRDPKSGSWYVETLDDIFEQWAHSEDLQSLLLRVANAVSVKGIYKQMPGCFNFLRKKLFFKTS

C9-p35/p12-CIVSM = target: B1; test: as above; conditions: both partners purified
[4] = target: the molecule itself; test: SEC; Apaf-1 NOD (1.5 μM) and ΔPro-C9-TM (80 nM) with dATP/MgCl2 (2 mM each), 30 min 37 °C; Superose-6 in 20 mM HEPES, 50 mM NaCl, 10 mM DTT, pH 8.0; fractions immunoblotted with anti-T7
[5] = target: B2; test: SPR; biotinylated Apaf-1 CARD-LZ-Avi immobilised on an SA chip; C9 proteins 125 nM-2 μM as analytes; 0.01 M HEPES, 0.15 M NaCl, 3 mM EDTA, 0.05% P20; room temperature; affinities by equilibrium analysis, kinetics fitted to a two-state model; conditions: both partners purified

Binder: B1
- stoichiometry N [1]: 2
- binding result [2]: binds

Binder: B2
- Kd [3]: 388 nM
- Kd (C9-p35/p12-CIVSM): 68 nM

B3: Apaf-1 NOD protein (127-530) (domain or fragment, UniProt O14727 127-530, looked up)
chain: VTRKKLVNAIQQKLSKLKGEPGWVTIHGMAGCGKSVLAAEAVRDHSLLEGCFPGGVHWVSVGKQDKSGLLMKLQNLCTRLDQDESFSQRLPLNIEEAKDRLRILMLRKHPRSLLILDDVWDSWVLKAFDSQCQILLTTRDKSVTDSVMGPKYVVPVESSLGKEKGLEILSLFVNMKKADLPEQAHSIIKECKGSPLVVSLIGALLRDFPNRWEYYLKQLQNKQFKRIRKSSSYDYEALDEAMSISVEMLREDIKDYYTDLSILQKDVKVPTKVLCILWDMETEEVEDILQEFVNKSLLFCDRNGKSFRYYLHDLQVDFLTEKNCSQLQDLHKKIITQFQRYHQPHTLSPDQEDCMYWYNFLAYHMASAKMHKELCALMFSLDWIKAKTELVGPAHLIHEFVEYR
notes: aa 127–530); Oligomerised with dATP/MgCl2; also called T7-NOD; NOD apoptosome complexes; source: E. coli BL21(DE3)pLysS, purified (Ni2+-NTA, Mono-Q; MBP removed with TEV protease, negative selection on Ni2+-NTA beads; not shown: MBP, N-terminal, cleaved; His6, internal (between MBP and NOD), cleaved
- binding result [4]: binds

- Kd [5]: 41800 nM
B4: C9 prodomain (domain or fragment)
chain: MDEADRRLLRRCRLRLVEELQVDQLWDALLSRELFRPHMIEDIQRAGSGSRRDQARQLIIDLETRGSQALPLFISCLEDTGQDMLASFLRTNRQAAKLSKPTLENLTPVVLRPEIRKPEVLRPETPRPVDIGSGGFG

Source: paper PMC5123071, “The Apaf-1 apoptosome induces formation of caspase-9 homo- and heterodimers with distinct activities” (Nature Communications, 2016)
